How the values were obtained:
[1] = molecular target: 77E203A205G thrombin (lysine 77 to glutamic acid, glycine 203 to alanine, serine 205 to glycine in B chain) (human, UniProt P00734 315-363; P00734 364-622); assay: IAsys biosensor, FAST FIT program; derivative immobilized
Experimental: (§1) Subsequently, 0.2 ml of 1 M ethanol amine (pH 8) was added thereto to perform a blocking treatment.

[2] = molecular target: 203A205G thrombin (glycine at position 203 in B chain substituted by alanine, serine at position 205 … (human, UniProt P00734 315-363; P00734 364-622); assay: as above
Experimental: as §1

Kd [1]: 0.19 µM
Kd [2]: 0.0108 µM
B1: fibrinogen (other)
chain 1: ADSGEGDFLAEGGGVRGPRVVERHQSACKDSDWPFCSDEDWNYKCPSGCRMKGLIDEVNQDFTNRINKLKNSLFEYQKNNKDSHSLTTNIMEILRGDFSSANNRDNTYNRVSEDLRSRIEVLKRKVIEKVQHIQLLQKNVRAQLVDMKRLEVDIDIKIRSCRGSCSRALAREVDLKDYEDQQKQLEQVIAKDLLPSRDRQHLPLIKMKPVPDLVPGNFKSQLQKVPPEWKALTDMPQMRMELERPGGNEITRGGSTSYGTGSETESPRNPSSAGSWNSGSSGPGSTGNRNPGSSGTGGTATWKPGSSGPGSTGSWNSGSSGTGSTGNQNPGSPRPGSTGTWNPGSSERGSAGHWTSESSVSGSTGQWHSESGSFRPDSPGSGNARPNNPDWGTFEEVSGNVSPGTRREYHTEKLVTSKGDKELRTGKEKVTSGSTTTTRRSCSKTVTKTVIGPDGHKEVTKEVVTSEDGSDCPEAMDLGTLSGIGTLDGFRHRHPDEAAFFDTASTGKTFPGFFSPMLGEFVSETESRGSESGIFTNTKESSSHHPGIAEFPSRGKSSSYSKQFTSSTSYNRGDSTFESKSYKMADEAGSEADHEGTHSTKRGHAKSRPV
chain 2: QGVNDNEEGFFSARGHRPLDKKREEAPSLRPAPPPISGGGYRARPAKAAATQKKVERKAPDAGGCLHADPDLGVLCPTGCQLQEALLQQERPIRNSVDELNNNVEAVSQTSSSSFQYMYLLKDLWQKRQKQVKDNENVVNEYSSELEKHQLYIDETVNSNIPTNLRVLRSILENLRSKIQKLESDVSAQMEYCRTPCTVSCNIPVVSGKECEEIIRKGGETSEMYLIQPDSSVKPYRVYCDMNTENGGWTVIQNRQDGSVDFGRKWDPYKQGFGNVATNTDGKNYCGLPGEYWLGNDKISQLTRMGPTELLIEMEDWKGDKVKAHYGGFTVQNEANKYQISVNKYRGTAGNALMDGASQLMGENRTMTIHNGMFFSTYDRDNDGWLTSDPRKQCSKEDGGGWWYNRCHAANPNGRYYWGGQYTWDMAKHGTDDGVVWMNWKGSWYSMRKMSMKIRPFFPQQ
chain 3: YVATRDNCCILDERFGSYCPTTCGIADFLSTYQTKVDKDLQSLEDILHQVENKTSEVKQLIKAIQLTYNPDESSKPNMIDAATLKSRKMLEEIMKYEASILTHDSSIRYLQEIYNSNNQKIVNLKEKVAQLEAQCQEPCKDTVQIHDITGKDCQDIANKGAKQSGLYFIKPLKANQQFLVYCEIDGSGNGWTVFQKRLDGSVDFKKNWIQYKEGFGHLSPTGTTEFWLGNEKIHLISTQSAIPYALRVELEDWNGRTSTADYAMFKVGPEADKYRLTYAYFAGGDAGDAFDGFDFGDDPSDKFFTSHNGMQFSTWDNDNDKFEGNCAEQDGSGWWMNKCHAGHLNGVYYQGGTYSKASTPNGYDNGIIWATWKTRWYSMKKTTMKIIPFNRLTIGEGQQHHLGGAKQAGDV
notes: also called Fbgn
